Molecular target: the molecule itself
Test: SEC-MALS

B1: Get3(D68N) (enzyme)
chain: not shown
For B1, the “stoichiometry N” value was 2.

— PMC9477564 (Nature structural & molecular biology, 2021)
